Experimental data from US20150105316A1 (TREVENA, published 2015).
Where no end group is shown, it is not given here. [ ]: non-standard residue; d: D form. Ac6c = NC1(C(=O)O)CCCCC1; Sar = CNCC(=O)O

T1: rat angiotensin 2 type 1 receptor (rat, UniProt P25095 1-359)
T1 sequence (looked up): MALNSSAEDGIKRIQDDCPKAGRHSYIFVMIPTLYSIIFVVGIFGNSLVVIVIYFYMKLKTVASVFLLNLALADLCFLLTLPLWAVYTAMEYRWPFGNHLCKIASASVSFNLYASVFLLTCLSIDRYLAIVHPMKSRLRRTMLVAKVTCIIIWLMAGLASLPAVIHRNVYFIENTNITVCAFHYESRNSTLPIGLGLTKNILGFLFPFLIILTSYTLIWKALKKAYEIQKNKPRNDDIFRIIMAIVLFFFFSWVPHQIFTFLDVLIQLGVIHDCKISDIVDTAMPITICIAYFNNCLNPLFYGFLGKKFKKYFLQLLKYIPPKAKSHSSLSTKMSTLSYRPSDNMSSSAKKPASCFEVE

T2: human angiotensin 2 type 1 receptor (human, UniProt P30556 1-359)
T2 sequence (looked up): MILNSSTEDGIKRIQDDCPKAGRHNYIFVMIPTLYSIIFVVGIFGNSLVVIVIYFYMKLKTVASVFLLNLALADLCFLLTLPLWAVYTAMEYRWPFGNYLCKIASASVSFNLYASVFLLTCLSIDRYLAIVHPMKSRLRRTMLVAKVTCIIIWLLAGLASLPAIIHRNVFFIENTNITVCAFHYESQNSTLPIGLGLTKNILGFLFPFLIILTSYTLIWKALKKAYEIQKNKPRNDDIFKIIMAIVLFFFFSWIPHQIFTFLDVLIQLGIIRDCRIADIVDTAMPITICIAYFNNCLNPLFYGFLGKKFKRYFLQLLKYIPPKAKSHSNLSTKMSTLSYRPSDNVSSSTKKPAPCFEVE

B1: SEQ ID NO: 12 (Sar-Arg-Val-Tyr-cyHex-His-Pro-Leu) (peptide)
peptide: [Sar]RVY[Ac6c]HPL
B2: SEQ ID NO: 16 (Sar-Arg-Val-Tyr-cyHex-His-Pro-Met) (peptide)
peptide: [Sar]RVY[Ac6c]HPM
B3: SEQ ID NO: 15 (Sar-Arg-Val-Tyr-cyHex-His-Pro-Ser) (peptide)
peptide: [Sar]RVY[Ac6c]HPS
B4: SEQ ID NO: 14 (Sar-Arg-Val-Tyr-cyHex-His-Pro-Thr) (peptide)
peptide: [Sar]RVY[Ac6c]HPT
B5: SEQ ID NO: 17 (Sar-Arg-Val-Tyr-cyHex-His-Pro-Phe) (peptide)
peptide: [Sar]RVY[Ac6c]HPF

Biological target: T1, rat angiotensin 2 type 1 receptor
Assay: cell-based or functional assay

Binder | beta-arrestin2 assay EC50 | beta-arrestin2 assay Span | beta-arrestin2 assay pEC50
B1 | > 3.2 nM | < 105 | < 8.5
B2 | > 3.2 nM | < 105 | < 8.5
B3 | > 3.2 nM | < 105 | < 8.5
B4 | > 3.2 nM | < 105 | < 8.5
B5 | 3.2 nM | < 105 | 8.5

Biological target: T2, human angiotensin 2 type 1 receptor
Assay: cell-based or functional assay

Binder | beta-arrestin2 assay EC50 | beta-arrestin2 assay Span | beta-arrestin2 assay pEC50
B1 | > 3.2 nM | < 101 | < 8.5
B2 | > 3.2 nM | < 101 | < 8.5
B3 | > 3.2 nM | < 101 | < 8.5
B4 | > 3.2 nM | < 101 | < 8.5
B5 | > 3.2 nM | > 101 | < 8.5

Biological target: T1, rat angiotensin 2 type 1 receptor
Assay: cell-based or functional assay
Remark: another data set of the same source

Binder | IP1 G-protein assay EC50 | IP1 G-protein assay Span | IP1 G-protein assay pEC50
B1 | > 0.6 nM | < 104 | < 9.2
B2 | > 0.6 nM | < 104 | < 9.2
B3 | > 0.6 nM | < 104 | < 9.2
B4 | > 0.6 nM |  | > 9.2
B5 | > 0.6 nM | > 104 | < 9.2

Biological target: T2, human angiotensin 2 type 1 receptor
Assay: cell-based or functional assay
Remark: another data set of the same source

Binder | IP1 G-protein assay EC50 | IP1 G-protein assay Span | IP1 G-protein assay pEC50
B1 | > 1.3 nM | < 103 | < 9.2
B2 | > 1.3 nM | < 103 | < 9.2
B3 | > 1.3 nM |  | > 9.2
B4 | > 1.3 nM |  | > 9.2
B5 | < 1.3 nM | < 103 | < 9.2
